Data as given in publication PMC6591361, “Recombinant production of human α2-macroglobulin variants and interaction studies with recombinant G-related α2-macroglobulin binding protein and latent transforming growth factor-β2” (Scientific Reports, 2019).

What was measured:
[1] = target: N-terminal part of human α2-macroglobulin (N-hα2M) (human) (UniProt P01023); assay: not stated; apparent mass of the purified hα2M fragments without reducing agents; method not named
[2] = target: T1, native authentic human α2-macroglobulin (human, UniProt P01023 24-1474, thioester bond intact (native form)); assay: native gel or EMSA; Sulfo-NHS-AMCA-labelled GRAB mixed with hα2M variants at a 4:1 molar ratio, buffer J, two hours at 37 °C, 10% native PAGE, gel fluorescence then Coomassie; settings: both partners purified
T1 construct: human α2-macroglobulin, UniProt P01023, 1,474-residue precursor; as secreted it lacks the signal peptide (recombinant constructs begin at S24); Tetramer (680.6 kDa by SEC-MALLS); glycosylated; also called hα2M; native hα2M; source: purified from human blood plasma of individual donors (PEG 4,000 precipitation, zinc-chelating resin, IEC, SEC)
T1 sequence (looked up): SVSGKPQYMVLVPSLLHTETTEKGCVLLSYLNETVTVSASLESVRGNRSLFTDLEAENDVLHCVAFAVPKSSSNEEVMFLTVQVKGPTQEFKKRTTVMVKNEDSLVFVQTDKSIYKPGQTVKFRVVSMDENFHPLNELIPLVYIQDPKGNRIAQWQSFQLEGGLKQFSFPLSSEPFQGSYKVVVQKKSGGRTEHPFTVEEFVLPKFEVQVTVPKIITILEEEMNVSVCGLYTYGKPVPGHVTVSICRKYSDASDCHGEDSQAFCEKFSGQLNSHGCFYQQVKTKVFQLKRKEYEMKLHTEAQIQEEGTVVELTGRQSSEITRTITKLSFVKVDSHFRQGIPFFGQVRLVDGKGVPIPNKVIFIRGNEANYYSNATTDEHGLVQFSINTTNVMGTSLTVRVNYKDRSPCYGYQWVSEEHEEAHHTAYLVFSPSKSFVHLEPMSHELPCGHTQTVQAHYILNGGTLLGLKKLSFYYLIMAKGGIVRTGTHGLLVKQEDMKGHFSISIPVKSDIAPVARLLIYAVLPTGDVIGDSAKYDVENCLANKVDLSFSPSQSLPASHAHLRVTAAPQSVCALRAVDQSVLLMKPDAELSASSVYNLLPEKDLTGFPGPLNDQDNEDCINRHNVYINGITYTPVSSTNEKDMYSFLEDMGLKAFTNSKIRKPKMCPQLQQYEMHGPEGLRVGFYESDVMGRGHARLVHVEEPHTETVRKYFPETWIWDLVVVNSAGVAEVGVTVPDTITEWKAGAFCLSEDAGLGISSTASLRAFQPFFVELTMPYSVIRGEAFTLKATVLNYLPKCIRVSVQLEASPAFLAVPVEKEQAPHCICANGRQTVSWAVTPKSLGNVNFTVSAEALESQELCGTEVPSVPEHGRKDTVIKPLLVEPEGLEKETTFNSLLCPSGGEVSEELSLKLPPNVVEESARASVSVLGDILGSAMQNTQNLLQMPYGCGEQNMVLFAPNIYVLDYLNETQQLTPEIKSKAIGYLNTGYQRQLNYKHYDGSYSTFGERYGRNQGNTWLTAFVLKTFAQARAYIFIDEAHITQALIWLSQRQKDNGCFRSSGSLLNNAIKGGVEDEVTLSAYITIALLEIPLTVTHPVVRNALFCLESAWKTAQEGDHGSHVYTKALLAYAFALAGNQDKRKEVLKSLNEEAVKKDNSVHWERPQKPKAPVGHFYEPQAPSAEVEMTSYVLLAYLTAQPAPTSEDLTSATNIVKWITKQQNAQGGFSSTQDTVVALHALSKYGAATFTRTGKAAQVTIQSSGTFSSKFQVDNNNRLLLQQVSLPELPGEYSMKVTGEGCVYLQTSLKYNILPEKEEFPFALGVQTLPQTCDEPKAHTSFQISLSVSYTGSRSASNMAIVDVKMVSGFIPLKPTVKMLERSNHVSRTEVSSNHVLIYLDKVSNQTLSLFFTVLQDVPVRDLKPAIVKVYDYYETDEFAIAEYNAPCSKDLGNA

[3] = target: T2, methylamine-induced authentic human α2-macroglobulin (human, UniProt P01023 24-1474, thioester bond opened by methylamine, producing a free cysteine); assay: as above; settings: both partners purified
T2 construct: human α2-macroglobulin, UniProt P01023; plasma protein as m1, induced form; Tetramer (684.1 kDa by SEC-MALLS); also called induced hα2M; induced authentic hα2M
T2 sequence (looked up): T1 sequence (looked up)

[4] = target: the molecule itself; assay: SEC; Superose 6 10/300, buffer D (20 mM Tris-HCl, 150 mM sodium chloride, pH 7.5); data not shown
[5] = target: the molecule itself; assay: SEC; Superose 6 10/300 (full-length recombinant hα2M) or Superdex 75 10/300 (pro-TGF-β2), buffer D (20 mM Tris-HCl, 150 mM sodium chloride, pH 7.5)

In the case of “N-terminal part of human α2-macroglobulin (N-hα2M) (from UniProt P01023 24-788) (domain or fragment)”, the stoichiometry N [1] is reported as 2.

B1: G-related α2M-binding protein (GRAB), V34-N181, labelled with Sulfo-NHS-AMCA (domain or fragment)
chain: GAMVDSPIEQPRIIPNGGTLTNLLGNAPEKLALRNEERAIDELKKQAIEDKEATTAIEAASSDALEALADQTDALQSEEAAVVKADNAASDALEALADQTDALQSEEAEVVQSDNAASDAWEKAATPIALDVKKTKDTKPVVKKEERQNVN
modifications: sulfosuccinimidyl-7-amino-4-methylcoumarin-3-acetate (Sulfo-NHS-AMCA) label, sites not stated
notes: residues left at the N-terminus after TEV cleavage, from the cloning strategy; also called fluorophore-labelled GRAB; labelled GRAB; source: E. coli BL21 (DE3), purified, labelled with Sulfo-NHS-AMCA; not shown: His6, N-terminal, cleaved
B1: binds [2]; binds [3].

B2: recombinant full-length human α2-macroglobulin from S2 cells (natural protein)
chain: SVSGKPQYMVLVPSLLHTETTEKGCVLLSYLNETVTVSASLESVRGNRSLFTDLEAENDVLHCVAFAVPKSSSNEEVMFLTVQVKGPTQEFKKRTTVMVKNEDSLVFVQTDKSIYKPGQTVKFRVVSMDENFHPLNELIPLVYIQDPKGNRIAQWQSFQLEGGLKQFSFPLSSEPFQGSYKVVVQKKSGGRTEHPFTVEEFVLPKFEVQVTVPKIITILEEEMNVSVCGLYTYGKPVPGHVTVSICRKYSDASDCHGEDSQAFCEKFSGQLNSHGCFYQQVKTKVFQLKRKEYEMKLHTEAQIQEEGTVVELTGRQSSEITRTITKLSFVKVDSHFRQGIPFFGQVRLVDGKGVPIPNKVIFIRGNEANYYSNATTDEHGLVQFSINTTNVMGTSLTVRVNYKDRSPCYGYQWVSEEHEEAHHTAYLVFSPSKSFVHLEPMSHELPCGHTQTVQAHYILNGGTLLGLKKLSFYYLIMAKGGIVRTGTHGLLVKQEDMKGHFSISIPVKSDIAPVARLLIYAVLPTGDVIGDSAKYDVENCLANKVDLSFSPSQSLPASHAHLRVTAAPQSVCALRAVDQSVLLMKPDAELSASSVYNLLPEKDLTGFPGPLNDQDNEDCINRHNVYINGITYTPVSSTNEKDMYSFLEDMGLKAFTNSKIRKPKMCPQLQQYEMHGPEGLRVGFYESDVMGRGHARLVHVEEPHTETVRKYFPETWIWDLVVVNSAGVAEVGVTVPDTITEWKAGAFCLSEDAGLGISSTASLRAFQPFFVELTMPYSVIRGEAFTLKATVLNYLPKCIRVSVQLEASPAFLAVPVEKEQAPHCICANGRQTVSWAVTPKSLGNVNFTVSAEALESQELCGTEVPSVPEHGRKDTVIKPLLVEPEGLEKETTFNSLLCPSGGEVSEELSLKLPPNVVEESARASVSVLGDILGSAMQNTQNLLQMPYGCGEQNMVLFAPNIYVLDYLNETQQLTPEIKSKAIGYLNTGYQRQLNYKHYDGSYSTFGERYGRNQGNTWLTAFVLKTFAQARAYIFIDEAHITQALIWLSQRQKDNGCFRSSGSLLNNAIKGGVEDEVTLSAYITIALLEIPLTVTHPVVRNALFCLESAWKTAQEGDHGSHVYTKALLAYAFALAGNQDKRKEVLKSLNEEAVKKDNSVHWERPQKPKAPVGHFYEPQAPSAEVEMTSYVLLAYLTAQPAPTSEDLTSATNIVKWITKQQNAQGGFSSTQDTVVALHALSKYGAATFTRTGKAAQVTIQSSGTFSSKFQVDNNNRLLLQQVSLPELPGEYSMKVTGEGCVYLQTSLKYNILPEKEEFPFALGVQTLPQTCDEPKAHTSFQISLSVSYTGSRSASNMAIVDVKMVSGFIPLKPTVKMLERSNHVSRTEVSSNHVLIYLDKVSNQTLSLFFTVLQDVPVRDLKPAIVKVYDYYETDEFAIAEYNAPCSKDLGNPTG
notes: human α2-macroglobulin, UniProt P01023, residues S24-N1473; residues from the construct before the His6-tag; Found in the induced form; also called recombinant hα2M from S2 cells; pIE-hα2M-H6; source: Drosophila S2 cells, transiently transfected, secreted (AKH signal peptide), purified (Ni-NTA, IEC, SEC); not shown: His6, C-terminal, kept
B2 was tested, and the “stoichiometry N” value [4] was 4.

B3: recombinant full-length human α2-macroglobulin from Expi293F cells (natural protein, UniProt P01023 24-1468, looked up)
chain: SVSGKPQYMVLVPSLLHTETTEKGCVLLSYLNETVTVSASLESVRGNRSLFTDLEAENDVLHCVAFAVPKSSSNEEVMFLTVQVKGPTQEFKKRTTVMVKNEDSLVFVQTDKSIYKPGQTVKFRVVSMDENFHPLNELIPLVYIQDPKGNRIAQWQSFQLEGGLKQFSFPLSSEPFQGSYKVVVQKKSGGRTEHPFTVEEFVLPKFEVQVTVPKIITILEEEMNVSVCGLYTYGKPVPGHVTVSICRKYSDASDCHGEDSQAFCEKFSGQLNSHGCFYQQVKTKVFQLKRKEYEMKLHTEAQIQEEGTVVELTGRQSSEITRTITKLSFVKVDSHFRQGIPFFGQVRLVDGKGVPIPNKVIFIRGNEANYYSNATTDEHGLVQFSINTTNVMGTSLTVRVNYKDRSPCYGYQWVSEEHEEAHHTAYLVFSPSKSFVHLEPMSHELPCGHTQTVQAHYILNGGTLLGLKKLSFYYLIMAKGGIVRTGTHGLLVKQEDMKGHFSISIPVKSDIAPVARLLIYAVLPTGDVIGDSAKYDVENCLANKVDLSFSPSQSLPASHAHLRVTAAPQSVCALRAVDQSVLLMKPDAELSASSVYNLLPEKDLTGFPGPLNDQDNEDCINRHNVYINGITYTPVSSTNEKDMYSFLEDMGLKAFTNSKIRKPKMCPQLQQYEMHGPEGLRVGFYESDVMGRGHARLVHVEEPHTETVRKYFPETWIWDLVVVNSAGVAEVGVTVPDTITEWKAGAFCLSEDAGLGISSTASLRAFQPFFVELTMPYSVIRGEAFTLKATVLNYLPKCIRVSVQLEASPAFLAVPVEKEQAPHCICANGRQTVSWAVTPKSLGNVNFTVSAEALESQELCGTEVPSVPEHGRKDTVIKPLLVEPEGLEKETTFNSLLCPSGGEVSEELSLKLPPNVVEESARASVSVLGDILGSAMQNTQNLLQMPYGCGEQNMVLFAPNIYVLDYLNETQQLTPEIKSKAIGYLNTGYQRQLNYKHYDGSYSTFGERYGRNQGNTWLTAFVLKTFAQARAYIFIDEAHITQALIWLSQRQKDNGCFRSSGSLLNNAIKGGVEDEVTLSAYITIALLEIPLTVTHPVVRNALFCLESAWKTAQEGDHGSHVYTKALLAYAFALAGNQDKRKEVLKSLNEEAVKKDNSVHWERPQKPKAPVGHFYEPQAPSAEVEMTSYVLLAYLTAQPAPTSEDLTSATNIVKWITKQQNAQGGFSSTQDTVVALHALSKYGAATFTRTGKAAQVTIQSSGTFSSKFQVDNNNRLLLQQVSLPELPGEYSMKVTGEGCVYLQTSLKYNILPEKEEFPFALGVQTLPQTCDEPKAHTSFQISLSVSYTGSRSASNMAIVDVKMVSGFIPLKPTVKMLERSNHVSRTEVSSNHVLIYLDKVSNQTLSLFFTVLQDVPVRDLKPAIVKVYDYYETDEFAIAEYNAPCS
notes: human α2-macroglobulin, UniProt P01023, residues S24-S1468; also called recombinant hα2M from Expi293F cells; pS6-hα2M-H6; source: Expi293F cells, transiently transfected, secreted (mouse Ig κ leader), purified (Ni-NTA, IEC, SEC); not shown: His6, C-terminal, kept
B3 was tested, and the “stoichiometry N” value [5] was 4.

B4: Strep-tagged latent human transforming growth factor-β2 (pro-TGF-β2) (natural protein)
chain: LSLSTCSTLDMDQFMRKRIEAIRGQILSKLKLTSPPEDYPEPEEVPPEVISIYNSTRDLLQEKASRRAAACERERSDEEYYAKEVYKIDMPPFFPSENAIPPTFYRPYFRIVRFDVSAMEKNASNLVKAEFRVFRLQNPKARVPEQRIELYQILKSKDLTSPTQRYIDSKVVKTRAEGEWLSFDVTDAVHEWLHHKDRNLGFKISLHCPCCTFVPSNNYIIPNKSEELEARFAGIDGTSTYTSGDQKTIKSTRKKNSGKTPHLLLMLLPSYRLESQQTNRRKKRALDAAYCFRNVQDNCCLRPLYIDFKRDLGWKWIHEPKGYNANFCAGACPYLWSSDTQHSRVLSLYNTINPEASASPCCVSQDLEPLTILYYIGKTPKIEQLSNMIVKSCKCS
notes: residues from the construct between the tag and L21; human pro-TGF-β2 (LAP plus mature TGF-β2), UniProt P61812, residues L21-S414; The purified protein was partially cleaved before A303 by host peptidases; also called Strep-tagged pro-TGF-β2; pS6-TGFB2-STREP; not shown: Strep-tag, N-terminal, kept
With B4 the “stoichiometry N” value [5] was 2.

B5: N-terminally octahistidine-tagged latent human transforming growth factor-β2 (pro-TGF-β2) (natural protein)
chain: B4 chain
notes: residues from the construct between the tag and L21; human pro-TGF-β2 (LAP plus mature TGF-β2), UniProt P61812, residues L21-S414; Partially cleaved before A303 by host peptidases; also called N-terminally His6-tagged pro-TGF-β2; pS6-TGFB2-H8; not shown: His8, N-terminal, kept
In the case of B5, the “stoichiometry N” value [5] is reported as 2.
